Sequences and labels used below:
B1: Dihydrofolate reductase, Q5KZ26 (parent)
chain: MISHIVAMDENRVIGKDNRLPWHLPADLAYFKRVTMGHAIVMGRKTFEAIGRPLPGRDNVVVTRNRSFRPEGCLVLHSLEEVKQWIASRADEVFIIGGAELFRATMPIVDRLYVTKIFASFPGDTFYPPISDDEWEIVSYTPGGKDEKNPYEHAFIIYERKKAK

The series covers variants of B1. The note with it: Geobacillus kaustophilus (strain HTA426); pH 7; Thermal; CD; Potassium Phosphate Buffer 10 mM; structure 1ZDR; whole UniProt chain shown.

The results in this text go back to FireProtDB (doi:10.1021/bi500238q).

For the variant MISHIVAMDENRVIGKDNRLPWHLPADLAYFKRVTMGHAIVMGRKTFEAIGRPLPGRDNVVVTRNRSFRPEGCLVLHSLEEVKQWIASRADEVFIIGGAELFRATMPIVDRLYVTKIFASFEGDTFYPDISDDEWEIVSYTPGGKDEKNPYEHAFIIYERKKAK [P122E P129D], the Tm (commonly the temperature at the midpoint of the melting transition) came to 65 °C and the “change of melting temperature, mutant - wild type (higher = more stable)” value (shortened to “change of melting temperature, mutant”) is -1.2 °C.

MISHIVAMDENRVIGKDNRMPWHLPADLAYFKRVTMGHAIVMGRKTFEAIGRPLPGRDNVVVTRNRSFRPEGCLVLHSLEEVKQWIASRADEVFIIGGAELFRQTMPIVDRLYVTKIFASFPGDTFYPPISDDEWEIVSYTPGGKDEKNPYEHAFIIYERKKAK [L20M A104Q]: the Tm was found to be 61.1 °C and the “change of melting temperature, mutant” value was -5.1 °C.

As to MISHIVAMDENRVIGKDNRMPWHLPADLAYFKRVTMGHAIVMGRKTFEAIGRPLPGRDNVVVTRNRSFRPEGCLVLHSLEEVKQWIASRADEVFIIGGAELFRATMPIVDRLYVTKIFASFPGDTFYPPISDDEWEIVSYTPGGKDEKNPYEHAFIIYERKKAK [L20M], the Tm turned out to be 61.4 °C and the “change of melting temperature, mutant” value was -4.8 °C.

Take MISHIVAMDENRVIGKDNRLPWHLPADLAYFKRVTMGHAIVMGRKTFEAIGRPLPGRDNVVVTRNRSFRPEGCLVLHSLEEVKQWIASRADEVFIIGGAELFRATMPIVDRLYVTKIFASFEGDTFYPPISDDEWEIVSYTPGGKDEKNPYEHAFIIYERKKAK [P122E]: the Tm came to 65.3 °C and the “change of melting temperature, mutant” value is -0.9 °C.

On to MISHIVAMDENRVIGKDNRLPWHLPADLAYFKRVTMGHAIVMGRKTFEAIGRPLPGRDNVVVTRNRSFRPEGCLVLHSLEEVKQWIASRADEVFIIGGAELFRATMPIVDRLYVTKIFASFPGDTFYPDISDDEWEIVSYTPGGKDEKNPYEHAFIIYERKKAK [P129D], for which the Tm turned out to be 64.6 °C and the “change of melting temperature, mutant” value was -1.6 °C.
